The record followed here is publication PMC7267773, “CCDC61/VFL3 Is a Paralog of SAS6 and Promotes Ciliary Functions” (Structure(London, England:1993), 2020).

Data set [1] deals with the molecule itself. The data set can be described thus: AUC; velocity sedimentation, approximately 480 μM (7.9 mg/ml), 20 mM Tris-HCl pH 8.0, 150 mM NaCl, 2 mM DTT, 50,000 rpm, 4°C; c(s) distribution.
Data set [2] deals with the molecule itself. The data set can be described thus: AUC; sedimentation equilibrium, 12, 4 and 1.3 mg/ml, 11,600, 19,700 and 34,000 rpm, 4°C; dimer to monomers.
Data set [3] deals with the molecule itself. In words: SEC-MALS; Superdex S200 10/300, 10mM Tris-HCl pH 7.4, 150mM NaCl, room temperature; loaded at 1, 6.5 and 65 mg/ml (wild type) and 1, 6.8 and 73 mg/ml (F129E/D130A).
Data set [4] concerns the molecule itself. In words: crystal structure; zCCDC61^1-170, 4.62 mg/ml, 100 mM Citric acid pH 5.0, 1 M LiCl, sitting drop, 20°C.

B1: N-terminal head domain of human CCDC61 (hCCDC61^1-143) (domain or fragment)
chain: GSMDQPAGLQVDYVFRGVEHAVRVMVSGQVLELEVEDRMTADQWRGEFDAGFIEDLTHKTGNFKQFNIFCHMLESALTQSSESVTLDLLTYTDLESLRNRKMGGRPGSLAPRSAQLNSKRYLILIYSVEFDRIHYPLPLPYQGKP
notes: extra residues Gly-Ser left at the N-terminus after the His-GST tag was cleaved with tev protease; gene codon optimized for E. coli and synthesized; The crystal (PDB 6HXT) was of the seleno-methionine-substituted protein; also called hCCDC61 head domain; source: E. coli BL21(DE3), purified (GSTrap, tev cleavage, HisTrap flow through, HiTrap Q, PD-10); not shown: His tag, N-terminal, cleaved; GST, …
With B1, the “stoichiometry N” value in data set [1] worked out at 2. The same protein gave a Kd in data set [2] of 170 ± 18 µM.

B2: His6-lipoyl-zCCDC61^1-170 (domain or fragment, zebrafish (Danio rerio), UniProt Q08CF3 1-170, looked up)
chain: MEVGTVVQEEMKFRGSEFAVKVEMAERLLIVEISDVVTADQWRGEFGPAYIEDLTRKTGNFKQFPVFCSMLESAVHKSSDSVTLDLLTYSDLELLRNRKAGVVGRPRAQPQSPALSAKRYLILIYTVEFDRIHYPLPLPYLGKPDPAELQKEIRALRSELKTLGLRGDHK
notes: zebrafish (Danio rerio) CCDC61, residues 1-170; The His6-lipoyl domain tag was retained for SEC-MALS to stabilize the protein at high concentrations; also called Lipo-zCCDC61^1-170; wild-type; source: E. coli C41 in 2xTY, purified (Ni-NTA, SEC, HiTrap Q-FF); not shown: His6, N-terminal, kept; lipoyl domain (Bacillus stearothermophilus dihydrolipoamide acetyltransferase), N-terminal, kept
For the protein B2, the binding result in data set [3] is reported as “binds”.

B3: His6-lipoyl-zCCDC61^(1-170; F129E/D130A) (domain or fragment, zebrafish (Danio rerio), UniProt Q08CF3 1-170, looked up)
chain: MEVGTVVQEEMKFRGSEFAVKVEMAERLLIVEISDVVTADQWRGEFGPAYIEDLTRKTGNFKQFPVFCSMLESAVHKSSDSVTLDLLTYSDLELLRNRKAGVVGRPRAQPQSPALSAKRYLILIYTVEEARIHYPLPLPYLGKPDPAELQKEIRALRSELKTLGLRGDHK
notes: zebrafish (Danio rerio) CCDC61, residues 1-170, with F129E and D130A; also called Lipo-zCCDC61^(1-170); head-to-head dimerization-deficient mutant; source: E. coli C41 in 2xTY, purified (Ni-NTA, SEC, HiTrap Q-FF); not shown: His6, N-terminal, kept; lipoyl domain (Bacillus stearothermophilus dihydrolipoamide acetyltransferase), N-terminal, kept
Take B3: the binding result in data set [3] was “binds”.

B4: zebrafish CCDC61 (residues 1–170; zCCDC61^1-170), lipoyl-domain tag removed (domain or fragment, zebrafish (Danio rerio))
chain: GGSMEVGTVVQEEMKFRGSEFAVKVEMAERLLIVEISDVVTADQWRGEFGPAYIEDLTRKTGNFKQFPVFCSMLESAVHKSSDSVTLDLLTYSDLELLRNRKAGVVGRPRAQPQSPALSAKRYLILIYTVEFDRIHYPLPLPYLGKPDPAELQKEIRALRSELKTLGLRGDHK
notes: extra residues Gly-Gly-Ser left at the N-terminus after the tag was cleaved with tev protease; zebrafish (Danio rerio) CCDC61, residues 1-170, head and part of the coiled-coil domain; Homo-tetramer in the crystal; source: E. coli C41, purified (Ni-NTA, tev cleavage, HisTrap FF, HiTrap Q HP flow through, PD-10); not shown: His tag, N-terminal, cleaved; lipoyl domain (Bacillus stearothermophilus …)
As for B4, in data set [4], the “stoichiometry N” value is 4.
